Results published in patent US20230416362A1.

How the values were obtained:
[1] = biological target: mTIGIT (ELISA of Table 7) (mouse) (UniProt P86176); experiment: ELISA binding
[2] = biological target: mTIGIT (ELISA of Table 7) (mouse) (UniProt P86176); experiment: mTIGIT/mCD155 competition ELISA; competitor mCD155

Sequence of mTIGIT (ELISA of Table 7) (mouse) (P86176 29-145 limits assumed): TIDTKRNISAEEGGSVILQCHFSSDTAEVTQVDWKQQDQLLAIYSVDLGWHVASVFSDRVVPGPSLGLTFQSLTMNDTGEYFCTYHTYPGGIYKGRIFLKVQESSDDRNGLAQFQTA

EC50 [1]: 0.3 nM
IC50 [2]: 1.5 nM
Substance: 1G9 (Bio X Cell, #BE0150) (antibody)
